Experiments:
[1] = test system: TMD-TEVcs-tTA; assay: TMD-TEVcs-tTA / tetO-EGFP reporter expression in HEK293T cells; assay type: cell-based; settings: control cells exposed to vehicle, absence of activator
Text: A system was used based upon the expression of a fluorophore after nuclear translocation of a transactivator sequestered on the plasmatic membrane by a TEV recognition site (TEVcs).
In particular, the inventors made to express in HEK293T cells a “tetracycline operator EGFP conjugated” (tetO-EGFP) and a synthetic protein consisting of a transactivator controlled by tetracycline (tTA), bound to a transmembrane domain (TMD) through a TEV recognition site (TEVcs) (TMD-TEVcs-tTA) (FIG. 7).

[2] = biological target: pro-TEVcs-BDNF (HA-pro-TEVcs-BDNF-Flag-SEP), P23560
[3] = mutations I138T, S153N and T180A; relative to wild-type TEV; cited from earlier work
[4] = test system: pro-TEVcs-BDNF; assay: In vitro protease test after immunoprecipitation of pro-TEVcs-BDNF and unica-TEV; assay type: biochemical; settings: in presence of rapamycin; SDS-PAGE
[5] = test system: CFP-TEVcs-YFP; assay: Cleavage of CFP-TEVcs-YFP substrate in the cytosol of transfected HEK293T cells (Western blot); assay type: cell-based
Text: Enzymatic Activity of Unica-TEV in Vital Cells • 13) Use CFP-TEVcs-YFP synthetic recombinant protein as substrate;
This artificial construct has two fluorophores conjugated by the cleavage sequence recognized by TEV (TEVcs). AntiGFP (Biolegend) antibody was used to verify cleavage of CFP-TEVcs-YFP by unica-TEV.
In order to do it, HEK293T cells were transfected (PEI MAX—Polysciences, Inc.) with the plasmids codifying constitutively active wild-type TEV (pcDNA-TEV), and engineered TEV with UniRapR (pcDNA-unica-TEV) and left to grow for 24-48 h at 37° C., 5% CO2.
For both of them, CFP-TEVcs-YFP was co-transfected.
After 24h the cells were treated for 1-3 h with rapamycin (1 μM) or DMSO as control. The cells were washed with cold PBS and lysed with lysis buffer containing rapamycin (1 μM) or DMSO. 10% of the volume of samples was prepared (addition of 2× Laemmli protein sample buffer+boiling for 5 min) for the electrophoretic analysis on gel of SDS-polyacrylamide.

[6] = test system: pro-TEVcs-BDNF human recombinant; assay: Cleavage/maturation of pro-TEVcs-BDNF in transfected HEK293T cells (Western blot); assay type: cell-based
[7] = test system: CA1 pyramidal neurons; assay: Dendritic spines of CA1 pyramidal neurons in transfected organotypic hippocampal sections; assay type: cell-based, rats; settings: unica-secTEV activated with rapamycin for 24 h
Text: In order to test the biological activity of mature BDNF obtained with the chemogenetic strategy in neurons, BDNF was immunoprecipitated and purified by HEK293T cells co-transfected with unica-secTEV and treated with rapamycin. […] In fact, BDNF biochemical features, including the positive charges on its surface, prevent the spreading thereof and keep its action locally at level of synapses. This feature obstructs even the effectiveness of injections of purified BDNF as therapeutic strategy. Since the extracellular application could involve both sides, even the exogenous application of purified BDNF is not useful in sectioning the roles of pre- and postsynaptic release. […] These gene approaches involve the deletion both of proBDNF and BDNF, the contribution of each form to the observed effect cannot be distinguished. The chemogenetic strategy developed by the inventors to control the protein cleavage is useful even to evaluate the specific autocrine action of BDNF inducible intracellular maturation in CA1 pyramidal neurons. In order to monitor BDNF specific effects in the postsynaptic neurons, organo-typical sections containing the hippocampus of rats with unica-secTEV, pro-TEVcs-BDNF and dsRed2 were transfected ballistically to display in a fluorescent way CA1 pyramidal neurons. After 48 h, unica-secTEV with rapamycin was activated for 24 h.

[8] = test system: TrkB; assay: ERK phosphorylation in cells expressing pro-TEVcs-BDNF, unica-secTEV and TrkB-mGFP; assay type: cell-based; settings: chemogenetic activation of unica-secTEV; co-expressed TrkB-mGFP
Text: In order to evaluate if mature BDNF obtained after activation of unica-secTEV was able to bind and activate its TrkB endogenous target receptor, pro-TEVcs-BDNF was expressed, unica-secTEV with TrkB-mGFP.

[9] = test system: hippocampal organotypic sections; assay: ERK phosphorylation in hippocampal organotypic sections treated with purified mature BDNF; assay type: cell-based, rat; settings: hippocampal organotypic sections treated for 30 minutes, Western blot
Protocol: HEK293T cells were transfected (PEI MAX—Polysciences, Inc.) with the plasmids codifying for unica-secTEV (pcDNA-unica-secTEV-SV5) and pro-TEVcs-BDNF (HA-pro-TEVcs-BDNF-Flag-SEP) and left for 24 h at 37° C., 5% CO2.
After 24 h the cells were treated for 1-3 h with rapamycin (1 μM) or DMSO as control. The cells were washed with cold PBS and lysed with lysis buffer containing rapamycin (1 μM) or DMSO. The lysate was immunoprecipitated with FLAG-M2-beads for 1 h and subsequently FLAG peptide (sigma F3290-4 mg) was added. After 1 h the beads were removed by Micro bio-spin Colums®—Bio-Rad. The eluted protein was kept at −20° C. Once quantified by commercially available ELISA kits its biological effect was tested as described in FIG. 6.
In order to test the biological activity of mature BDNF obtained with the chemogenetic strategy in neurons, BDNF was immunoprecipitated and purified by HEK293T cells co-transfected with unica-secTEV and treated with rapamycin. […] In fact, BDNF biochemical features, including the positive charges on its surface, prevent the spreading thereof and keep its action locally at level of synapses. This feature obstructs even the effectiveness of injections of purified BDNF as therapeutic strategy. […]

B1: unica-TEV without linker: unica-TEV construct with no linker (NL) between TEV and UniRapR (protein)
chain: GESLFKGPRDYNPISSTICHLTNESDGHTTSLYGIGFGPFIITNKHLFRRNNGTLLVQSLHGVFKVKNTTTLQQHLIDGRDMIIIRMPKDFPPFPQKLKFREPQREERICLVTTNFQTKSTCVVHYTGMLEDGKKFDSSRDRNKPFKFMLGKQEVIRGWEEGVAQMSVGQRAKLTISPDYAYGATGHGSGSGSGVKDLLQAWDLYYHVFRRISGPPGPGSGLWHEMWHEGLEEASRLYFGERNVKGMFEVLEPLHAMMERGPQTLKETSFNQAYGRDLMEAQEWCRKYMKSGSSGGSGSGIIPPHATLVFDVELLKLEMSSMVSDTSCTFPSSDGIFWKHWIQTKDGQCGSPLVSTRDGFIVGIHSASNFTNTNNYFTSVPKNFMELLTNQEAQQWVSGWRLNADSVLWGGHKVFMVKPEEPFQPVKEATQLMN
[1]
  EGFP signal (background): substantially lower
[1]; listed as NL construct
  EGFP signal (background): almost wholly absent

B2: unica-TEV (unimolecular chemical-activatable TEV) (protein)
chain: GESLFKGPRDYNPISSTICHLTNESDGHTTSLYGIGFGPFIITNKHLFRRNNGTLLVQSLHGVFKVKNTTTLQQHLIDGRDMIIIRMPKDFPPFPQKLKFREPQREERICLVTTNFQTKSGGSTCVVHYTGMLEDGKKFDSSRDRNKPFKFMLGKQEVIRGWEEGVAQMSVGQRAKLTISPDYAYGATGHGSGSGSGVKDLLQAWDLYYHVFRRISGPPGPGSGLWHEMWHEGLEEASRLYFGERNVKGMFEVLEPLHAMMERGPQTLKETSFNQAYGRDLMEAQEWCRKYMKSGSSGGSGSGIIPPHATLVFDVELLKLEGGSMSSMVSDTSCTFPSSDGTFWKHWIQTKDGQCGNPLVSTRDGFIVGIHSASNFTNTNNYFASVPKNFMELLTNQEAQQWVSGWRLNADSVLWGGHKVFMVKPEEPFQPVKEATQLMN
[2]
  in vitro protease test after immunoprecipitation of both proteins, with rapamycin, SDS-PAGE: SDS-PAGE migration of pro-peptide was noted

B3: unica-TEV: engineered single-chain TEV protease with uniRapR domain inserted between S120 and M121, rapamycin-activable; SEQ ID Nr. 5 (protein)
chain: B2 chain
modifications: Peptide sequence of unica-TEV engineered protease (1)..(440)
[3]
  kcat/Km ratio unica-TEV/wtTEV: 2.81
[4]
  cleavage of pro-TEVcs-BDNF in vitro: SDS-PAGE migration of pro-peptide was noted
[5]; in absence of rapamycin
  cleavage of CFP-TEVcs-YFP (background activity): absence of cleavage background
[5]; in presence of rapamycin
  cleavage of CFP-TEVcs-YFP: identical cleavage profile
[6]; HEK293T, cytosolic localization of TEV protease
  splitting of pro-TEVcs-BDNF in living cells by cytosolic protease: nor unica-TEV in presence of rapamycin, nor an active mutating form of TEV, split pro-TEVcs-BDNF

B4: unica-secTEV: unica-TEV with N-terminal secretion signal and mutations for activity in the secretory pathway; SEQ ID Nr. 6 (protein)
chain: QGAQGESLFKGPRDYNPISSTICHLTQESDGHTTSLYGIGFGPFIITNKHLFRRNNGTLLVQSLHGVFKVKNTTTLQQHLIDGRDMIIIRMPKDFPPFPQKLKFREPQREERICLVTTNFQTKSGGSTCVVHYTGMLEDGKKFDSSRDRNKPFKFMLGKQEVIRGWEEGVAQMSVGQRAKLTISPDYAYGATGHGSGSGSGVKDLLQAWDLYYHVFRRISGPPGPGSGLWHEMWHEGLEEASRLYFGERNVKGMFEVLEPLHAMMERGPQTLKETSFNQAYGRDLMEAQEWCRKYMKSGSSGGSGSGIIPPHATLVFDVELLKLEGGSMSSMVSDTSSTFPSSDGTFWKHWIQTKDGQCGNPLVSTRDGFIVGIHSASNFGNTNNYFASVPKNFMELLTNQEAQQWVSGWRLNADSVLWGGHKVFMSKPEEPFQPVKEATQLMNEGGLE
modifications: left off: small tags and cut ends
[7]
  morphology of dendritic spines: significant changes in the morphology of dendritic spines
  volume of heads of dendritic spines: increase in the volume of heads of dendritic spines
[7]; co-transfected pro-TEVcs-BDNF and dsRed2
  density of dendritic spines: significant increase in the density of dendritic spines
[8]
  ERK phosphorylation: clear increase in the kinase phosphorylation
[6]; in absence of rapamycin, secretory pathway
  cleavage of pro-TEVcs-BDNF (background activity): absence of cleavage background
[6]; in presence of rapamycin, secretory pathway, Western blot
  maturation (cleavage) of pro-TEVcs-BDNF in vital cells: 41-kDa band was noted designating BDNF maturation in the living cells and capability of unica-secTEV to make pro-TEVcs-BDNF to mature in vital cells

B5: purified mature BDNF: mature BDNF immunoprecipitated and purified from HEK293T cells co-transfected with unica-secTEV and treated with rapamycin (protein, UniProt P23560 129-247, looked up)
Neurotrophic factor BDNF: HSDPARRGELSVCDSISEWVTAADKKTAVDMSGGTVTVLEKVPVSKGQLKQYFYETKCNPMGYTKEGCRGIDKRHWNSQCRTTQSYVRALTMDSKKRIGWRFIRIDTSCVCTLTIKRGR
modifications: Neurotrophic factor BDNF
notes: mature BDNF immunoprecipitated and purified from HEK293T cells co-transfected with unica-secTEV and treated with rapamycin
[9]
  ERK phosphorylation: significant increase in ERK phosphorylation signals
[9]; listed as mature BNDF
  ERK phosphorylation: induces a phosphorylation of ERK protein

From patent US20230285520A1, “DEVELOPMENT OF A NEW ENGINEERED TOBACCO ETCH VIRUS (TEV) PROTEASE ACTIVABLE IN THE CYTOSOL OR SECRETORY PATHWAY” (Università Cattolica del Sacro Cuore, priority 2020, published 2023)
